{"source": "patent US20250289871A1", "about": "(AstraZeneca / MedImmune, published 2025)", "binders": {"B1": {"name": "RQ43-GL-H-LO1 (TM-YTE) (antibody, V domains shown)", "VH": "EVQLVESGGGLVQPGRSLRLSCAASGFPFDDYAIHWVRLAPGKGLEWVSSISWDSGSIGYADSVKGRFTISRDNAKNSLYLQMNSLRAEDTALYYCAKGAFPGYSSGWYYGLEVWGQGTTVTVSS", "VL": "QSVVTQPPSASGSLGQSVTISCTGTSSDVGGYNYVSWYQQHPGKAPKLMIFEVSKRPSGVPDRFSGSKSGNTASLTVSGLQAEDEADYYCSSYAGNKGVFGGGTKLTVL"}, "B2": {"name": "RQ43 (TM-YTE) (antibody, V domains shown)", "VH": "B1 VH with V5L, S7T, E113D, T119A", "VL": "B1 VL"}, "B3": {"name": "RQ41 (TM-YTE) (antibody, V domains shown)", "VH": "EVQLVESGGGLIQPGGSLRLSCAASEIIVSRNYMSWVRQAPGKGLEWVSVIYSGGSTFYADSVKGRFTISRDNSKNTLYLQMNSLRAEDTAVYYCARDLDVVGGTDYWGQGTLVTVSS", "VL": "not shown"}, "B4": {"name": "RQ33 (TM-YTE) (antibody, V domains shown)", "VH": "QVQLQESGPGLVKPSETLSLTCTVFGGSITSSNHYWVWIRQPPGKGLEWIGSMYYSGSTAYNPSLTNRVTISVDTSKNQFSLKLSSVTAADTAVYYCARQIGPKRPSQVADWFDPWGQGTLVTVSS", "VL": "not shown"}, "B5": {"name": "RQ40 (TM-YTE) (antibody, V domains shown)", "VH": "EVQLVESGAEVKKPGSSVKVSCKASGGTFSSYAINWVRQAPGQGLEWMGGIIPIFRTPHYAQKFQGRVTITADESTGTAYMELSSLRSEDTAVYYCASPSCGGDCPQYLKSSKLDWYFDLWGRGTLVTVSS", "VL": "VIWMTQSPGTLSLSPGERATLSCRASQSVSSTYLAWYQQKPGQAPRLLIYGASSRATGIPDRFSGSGSGTDFTLTISRLEPEDFAVYYCQHYGSSPLTFGQGTRLEIK"}}, "key": {"[1]": {"target": "BA.2.12.1 spike protein (pseudovirus) (SARS-CoV-2)", "test": "cell-based or functional assay"}, "[2]": {"target": "SARS-CoV-2 Alpha spike protein (authentic virus) (SARS-CoV-2, UniProt P0DTC2 14-1273)", "test": "cell-based or functional assay"}, "[3]": {"target": "SARS-CoV-2 D614G spike protein (authentic virus) (SARS-CoV-2, UniProt P0DTC2 14-1273)", "test": "cell-based or functional assay"}, "[4]": {"target": "SARS-CoV-2 BA.2 spike protein (authentic virus) (SARS-CoV-2, UniProt P0DTC2 14-1273)", "test": "cell-based or functional assay"}, "[5]": {"target": "SARS-CoV-2 BA.1.1 spike protein (authentic virus) (SARS-CoV-2, UniProt P0DTC2 14-1273)", "test": "cell-based or functional assay"}, "[6]": {"target": "SARS-CoV-2 BA.1 spike protein (authentic virus) (SARS-CoV-2, UniProt P0DTC2 14-1273)", "test": "cell-based or functional assay"}, "[7]": {"target": "SARS-CoV-2 BA.5 spike protein (authentic virus) (SARS-CoV-2, UniProt P0DTC2 14-1273)", "test": "cell-based or functional assay"}, "[8]": {"target": "T1, SARS-CoV-2 BA.2.12.1 spike protein (authentic virus) (SARS-CoV-2, UniProt P0DTC2 14-1273)", "test": "cell-based or functional assay"}, "[9]": {"target": "D614G spike protein (pseudovirus) (SARS-CoV-2)", "test": "cell-based or functional assay"}, "[10]": {"target": "BA.2 spike protein (pseudovirus) (SARS-CoV-2)", "test": "cell-based or functional assay"}, "[11]": {"target": "BA1.1 spike protein (pseudovirus) (SARS-CoV-2)", "test": "cell-based or functional assay"}, "[12]": {"target": "Omicron (BA.1) spike protein (pseudovirus) (SARS-CoV-2)", "test": "cell-based or functional assay"}, "[13]": {"target": "Delta spike protein (pseudovirus) (SARS-CoV-2)", "test": "cell-based or functional assay"}, "[14]": {"target": "SARS-CoV-2 spike RBD point mutant K444A (SARS-CoV-2, UniProt P0DTC2 334-526)"}, "[15]": {"target": "SARS-CoV-2 spike RBD point mutant F486A (SARS-CoV-2, UniProt P0DTC2 334-526)"}, "[16]": {"target": "T1, SARS-CoV-2 BA.2.12.1 spike protein …", "test": "cell-based or functional assay", "remark": "listed apart in the source"}}, "note": "Residue numbers refer to the chain shown, from its start.", "data": [{"binder": "B1", "values": [{"measurement": "IC50 (read off the curve), pseudovirus with BA.2.12.1 spike", "setting": "[1]", "result": "~0.008", "unit": "µg/mL"}, {"measurement": "Authentic Virus Neutralization IC50", "setting": "[2]", "result": 0.06, "unit": "µg/mL"}, {"measurement": "Authentic Virus Neutralization IC50", "setting": "[3]", "result": 0.099, "unit": "µg/mL"}, {"measurement": "Authentic Virus Neutralization IC50", "setting": "[4]", "result": 0.031, "unit": "µg/mL"}, {"measurement": "Authentic Virus Neutralization IC50", "setting": "[5]", "result": 0.007, "unit": "µg/mL"}, {"measurement": "Authentic Virus Neutralization IC50", "setting": "[6]", "result": 0.011, "unit": "µg/mL"}, {"measurement": "Authentic Virus Neutralization IC50", "setting": "[7]", "result": 0.017, "unit": "µg/mL"}, {"measurement": "Authentic Virus Neutralization IC50", "setting": "[8]", "result": 0.028, "unit": "µg/mL"}]}, {"binder": "B2", "values": [{"measurement": "EC50, pseudovirus neutralization", "setting": "[9]", "result": 0.0158, "unit": "µg/mL"}, {"measurement": "EC50, pseudovirus neutralization", "setting": "[10]", "result": 0.0105, "unit": "µg/mL"}, {"measurement": "EC50, pseudovirus neutralization", "setting": "[11]", "result": 0.006, "unit": "µg/mL"}, {"measurement": "EC50, pseudovirus neutralization", "setting": "[12]", "result": 0.0078, "unit": "µg/mL"}, {"measurement": "EC50, pseudovirus neutralization", "setting": "[13]", "result": 0.0259, "unit": "µg/mL"}, {"measurement": "Kd", "setting": "[14]", "result": "< 0.001", "unit": "nM"}, {"measurement": "Kd", "setting": "[15]", "result": "< 0.001", "unit": "nM"}]}, {"binder": "B3", "values": [{"measurement": "EC50, pseudovirus neutralization", "setting": "[9]", "result": 0.011, "unit": "µg/mL"}, {"measurement": "EC50, pseudovirus neutralization", "setting": "[10]", "result": 0.0126, "unit": "µg/mL"}, {"measurement": "EC50, pseudovirus neutralization", "setting": "[11]", "result": 0.0039, "unit": "µg/mL"}, {"measurement": "EC50, pseudovirus neutralization", "setting": "[12]", "result": 0.0062, "unit": "µg/mL"}, {"measurement": "EC50, pseudovirus neutralization", "setting": "[13]", "result": 0.0182, "unit": "µg/mL"}]}, {"binder": "B4", "values": [{"measurement": "IC50 (read off the curve), pseudovirus with BA.2.12.1 spike", "setting": "[1]", "result": "~0.05", "unit": "µg/mL"}, {"measurement": "EC50, pseudovirus neutralization", "setting": "[9]", "result": 0.191, "unit": "µg/mL"}, {"measurement": "EC50, pseudovirus neutralization", "setting": "[10]", "result": 0.0797, "unit": "µg/mL"}, {"measurement": "EC50, pseudovirus neutralization", "setting": "[11]", "result": 0.0031, "unit": "µg/mL"}, {"measurement": "EC50, pseudovirus neutralization", "setting": "[12]", "result": 0.0045, "unit": "µg/mL"}, {"measurement": "EC50, pseudovirus neutralization", "setting": "[13]", "result": 0.205, "unit": "µg/mL"}, {"measurement": "IC50 (read off the curve), FRNT, authentic BA.2.12.1 virus", "setting": "[16]", "result": "~0.5", "unit": "µg/mL"}, {"measurement": "Kd", "setting": "[14]", "result": 3.13, "unit": "nM"}, {"measurement": "Kd", "setting": "[15]", "result": 3.28, "unit": "nM"}]}, {"binder": "B5", "values": [{"measurement": "EC50, pseudovirus neutralization", "setting": "[9]", "result": 0.0099, "unit": "µg/mL"}, {"measurement": "EC50, pseudovirus neutralization", "setting": "[10]", "result": 0.007, "unit": "µg/mL"}, {"measurement": "EC50, pseudovirus neutralization", "setting": "[11]", "result": 0.0042, "unit": "µg/mL"}, {"measurement": "EC50, pseudovirus neutralization", "setting": "[12]", "result": 0.0064, "unit": "µg/mL"}, {"measurement": "EC50, pseudovirus neutralization", "setting": "[13]", "result": 0.0112, "unit": "µg/mL"}, {"measurement": "Kd", "setting": "[14]", "result": "< 0.001", "unit": "nM"}, {"measurement": "Kd", "setting": "[15]", "result": 47.1, "unit": "nM"}]}]}
